Results: the supplement of paper PMC7125110
± gives the standard error. Fewer inactive variants are shown than the library holds.

B1: glmS ribozyme (parent)
chain: AUAAAAGCGCCAGAACUACAGAAAUGUAGUUGACGAGGAGGAGGUUUAUCGAAUUUUCGGCGGAUGCCUCCAAA

Variants of: B1
Assay: self-cleavage kobs at 2500 uM GlcN6P; higher = faster cleavage; RNA array
Conditions: with glucosamine-6-phosphate
Method in brief: (§1)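 Tiles bearing barcoded ribozyme variants, transcribed in situ by E. coli RNA polymerase on sequenced MiSeq chips, were imaged over ~14 h at 37 °C using a hybridised Cy3 probe. Glucosamine-6-phosphate was supplied at 40 μM to 10 mM in HEPES/KCl/Mg(OAc)2 buffer. kobs came from one- or two-exponential decay fits to normalised per-tile medians, and weighted Michaelis–Menten fits then provided kcat and KM.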

Variant | self-cleavage kobs at 2500 uM GlcN6P [s⁻¹]
A6C G13U G60U U65C | < 1e-05
G41C U47G G59U | < 1e-05
G60U G66A | < 1e-05
G44A A53U C67A | 0.00591 ± 0.0013
U55A G60C U65A | < 1e-05
A6C A12U C50G G51C U54A | < 1e-05
U45A G63C | < 1e-05
A6G C16U C58U U65G | < 1e-05
A6U U54G G66C C67U | < 1e-05
A6U A15U G51C | < 1e-05
A6U G29A G41U U65C C68U | < 1e-05
G44U C58A G59U | < 1e-05
C50U U56A G66U | < 1e-05
U47A G66C C71U | 0.000491 ± 0.00012
A6C G7C G41A | < 1e-05
U54A G66A C67A | 0.00163 ± 0.00044
U47A G62A | < 1e-05
G40U G43U U49C | < 1e-05
U47A A48U C70U | 0.000141 ± 3.3e-05
A6C G13C U45C | < 1e-05
U46C C71G | 0.000331 ± 5e-05
A6C G29C G51U A53G | < 1e-05
U46G U49C U55G | < 1e-05

Variant | self-cleavage kobs at 2500 uM GlcN6P [s⁻¹]
A6G G9C A33U C70U | < 1e-05
G7A G40A C71A | < 1e-05
A6G C16U G40C U46A G66U | < 1e-05
A6C C8U U45G U65C C67A | < 1e-05
A6G A14C G38C | < 1e-05
A6U G38C U47A A48G G66A U69G | < 1e-05
G59A C61A | < 1e-05
A6G G7A C8U C61U | < 1e-05
C50G A52G G60U C71U | 6.62e-05 ± 2.9e-05
G7A A12G G40U A48G A52C C67U | < 1e-05
A52U C68G | 4.62e-05 ± 8.4e-06
A6C A15U G43U U54G | < 1e-05
G44U U49C G62U | < 1e-05
A6U G44U U46A A52U U56G C58U C70U | < 1e-05
A6G A53C C68A | < 1e-05
U54A U55G A64C | 5.81e-05 ± 1.7e-05
A6G A12G U54G A64U C70G | < 1e-05
G7A C8U C10U A12C A36C U49G G60C A64U | < 1e-05
U55G G66A C70G | 0.000206 ± 4.7e-05
G7A A12G G44A U47G | < 1e-05
A6C C10G A36G | < 1e-05
U47C C67A | 0.000286 ± 9.8e-05

Variants of: B1
Assay: self-cleavage kobs at 640 uM GlcN6P; higher = faster cleavage; RNA array
Conditions: with glucosamine-6-phosphate
Method in brief: as §1

Variant | self-cleavage kobs at 640 uM GlcN6P [s⁻¹]
G44U A53G U65C | < 1e-05
G41C U47G G59U | < 1e-05
U54C G60C C67G | < 1e-05
G60U G66A | < 1e-05
G44A A53U C67A | 0.00108 ± 0.00027
U55A G60C U65A | < 1e-05
G44U U54G C68A | < 1e-05
U49C G51A | < 1e-05
A42G G43A C67U C68U | 0.000241 ± 0.00011
G43A C50A | < 1e-05
G66U C68G C71A | 5.91e-05 ± 2.3e-05
U45A G63C | < 1e-05
U49G C68G U69G | 5.67e-05 ± 2.1e-05
U57A G62A | < 1e-05
G41C A42C C50G | < 1e-05
G59U C70G | 0.000548 ± 0.00023
C50G G62A C68G | 0.000159 ± 4.6e-05
G44U C58A G59U | < 1e-05
C61U C68G | 4.29e-05 ± 1.5e-05
C50U U56A G66U | < 1e-05
U47A G66C C71U | 0.000187 ± 6.3e-05
A52G C58G U65C | < 1e-05
G51A G63U C70G | 7.13e-05 ± 2.7e-05
U54A G66A C67A | 0.00151 ± 0.00064

Variant | self-cleavage kobs at 640 uM GlcN6P [s⁻¹]
U47A G62A | < 1e-05
G40U G43U U49C | < 1e-05
U47A A48U C70U | 0.000162 ± 5.1e-05
G43C U46G U56G | < 1e-05
C50U U57A C68A U69G C71G | 8.81e-05 ± 3.4e-05
U46C C71G | 7.56e-05 ± 1.5e-05
U46G U49C U55G | < 1e-05
G51A A53G C71A | < 1e-05
G43C U45G G63C U69G | < 1e-05
U47A G51A C71G | 0.0001 ± 3.9e-05
G59A C61A | < 1e-05
C50G A52G G60U C71U | 0.000392 ± 0.00013
A52U C68G | 0.000375 ± 0.00018
G43C A53U U55A U57A | < 1e-05
C50A G62C A64G | < 1e-05
C58G C68U C71G | 5.51e-05 ± 2.4e-05
G44U U49C G62U | < 1e-05
U54A U55G A64C | 3.35e-05 ± 1.7e-05
U55G G66A C70G | 0.000126 ± 2.1e-05
A48G A53C C58U G59U | < 1e-05
A42U G60C C61U | < 1e-05
U47C C67A | 0.000623 ± 0.00018
A53G G66C C71G | 8.43e-05 ± 2.2e-05

Variants of: B1
Assay: self-cleavage kobs at 10000 uM GlcN6P; higher = faster cleavage; RNA array
Conditions: with glucosamine-6-phosphate
Method in brief: as §1

Variant | self-cleavage kobs at 10000 uM GlcN6P [s⁻¹]
U49C G51A | < 1e-05
A42G G43A C67U C68U | 0.000713 ± 0.00018
C50G G62A C68G | 0.000111 ± 2.9e-05
U47A A48U C70U | 0.000573 ± 0.00021
U46C C71G | 0.000149 ± 6.2e-05
A6U G38C U47A A48G G66A U69G | < 1e-05
A52U C68G | 1.85e-05 ± 7.8e-06
U47C C67A | 0.000244 ± 8e-05
